Assay results as given in patent publication US20080207488A1, “Method for Detecting Peptides Comprising a Cross-B Structure” (priority 2005, published 2008).
“Also recorded” adds a separate entry of the source.

Assays:
tPA = molecular target: T1, tPA (Homo sapiens, UniProt P00750); assay: Biacore surface plasmon resonance, binding to immobilized tPA; details: Hb-AGE 32, amyloid γ-globulins 62.5, albumin-AGE 3.9 μg ml^−1
T1 construct: purchased Boehringer-Ingelheim (Actilyse, Alteplase)
Procedure: Binding of cross-β structure conformation containing peptides/proteins was studied using surface plasmon resonance technology with a Biacore 2000 apparatus (Biacore AB, Uppsala, Sweden). A standardized amine coupling procedure was used to couple proteins with F domains to a CM5 chip (Biacore AB, Uppsala, Sweden). First, the dextran surface of the chips was activated by a 35 μl injection with a 1:1 mixture of 0.1 M N-hydroxysuccinimide (NHS) and 0.4 M N-ethyl-N′-(dimethylaminopropyl)carbodiimide (EDC) at a flow rate of 5 μl min.^−1. Then, the proteins were covalently coupled to the activated dextran surface. Remaining activated groups in each of the four flow channels were blocked by injection of 35 μl of 1 M ethanolamine hydrochloride pH 8.5. EDC, NHS and ethanolamine hydrochloride were obtained from Biacore. On one chip, on channels 1 to 4, buffer (reference channel), the soluble extracellular part of receptor for advanced glycation endproducts (sRAGE), tPA and K2P-tPA were immobilized. […] Binding of albumin-AGE was determined with a solution of 3.9 μg ml^−1 albumin-AGE in running buffer. albumin-AGE was filtered on a Millex-GV 0.22 μm filter unit (Millipore). […] Binding of Hb-AGE was also tested after centrifugation for 10 min. at 16,000*g alternative to filtration. tPA activation before and after filtration was assessed with a Plg-activation assay. […]

human BiP = molecular target: T2, human BiP (Homo sapiens, UniProt P11021); assay: ELISA, binding of BiP to coated (mis)folded proteins; details: coated protein
T2 construct: made in house; host or cells: HEK293E cells, transient transfection, protein purified from the medium
Procedure: (§1) The plates were blocked using Blocking reagent (Roche 1112589). A dilution series of the protein of interest was applied to the coated proteins and wells were subsequently washed using TBS-T (50 mM Tris pH 7.3, 150 mM NaCl and 0.1% Tween20). Bound protein is detected by the FLAG-tag using 1:3000 anti-FLAG-HRP (Sigma A-8592) in PBS-T, or by 1:1000 Ni-NTA-HRP (Qiagen 34530) in PBS-T. The HRP reaction Is performed using the TMB substrate (Biosource 4501103 or Tebu Bio 101TMB100-500), stopped using 10% H2SO4 and absorbance was measured at 450 nm.

[1] = tested on: human tissue-type plasminogen activator finger EGF (tPA F-EGF) fragment; assay: ELISA, binding of tPA F-EGF to coated (mis)folded proteins; details: coated protein, FIG. 7A, I; listed as BSA-AGE
Procedure: as §1

[2] = ThT fluorescence of CpG-ODN-protein mixtures; format: physicochemical; details: for increase in ThT fluorescence / ThT fluorescence enhancement: 1 mg ml^−1 protein; for increase in ThT fluorescence: 30 min. at room temperature (FIG. 4D, E); for ThT fluorescence enhancement: overnight
Procedure: (§2) Fluorescence of ThT-protein/peptide adducts was measured as follows. […] Fluorescence was measured at 485 nm upon excitation at 435 nm. Background signals from buffer, buffer with ThT and protein/peptide solution without ThT were subtracted from corresponding measurements with protein solution incubated with ThT. […] Fluorescence was measured in triplicate on a Hitachi F-4500 fluorescence spectrophotometer (Ltd., Tokyo, Japan).
Enhancement of ThT fluorescence was measured similarly as described above. […]

[3] = ThT fluorescence of LPS-protein mixtures; format: physicochemical; details: for ThT fluorescence enhancement vs protein in buffer only: 1 mg ml^−1 protein
Procedure: as §2
Subsequently, the ability to enhance ThT fluorescence was determined with 40× diluted solution, as described above. […]

human tissue-type plasminogen activator finger EGF (tPA F-EGF) fragment, sequence (P00750 39-120 limits assumed): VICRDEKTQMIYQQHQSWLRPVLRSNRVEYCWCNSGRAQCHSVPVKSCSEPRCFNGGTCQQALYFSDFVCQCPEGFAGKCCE
T2 sequence (P11021 19-654): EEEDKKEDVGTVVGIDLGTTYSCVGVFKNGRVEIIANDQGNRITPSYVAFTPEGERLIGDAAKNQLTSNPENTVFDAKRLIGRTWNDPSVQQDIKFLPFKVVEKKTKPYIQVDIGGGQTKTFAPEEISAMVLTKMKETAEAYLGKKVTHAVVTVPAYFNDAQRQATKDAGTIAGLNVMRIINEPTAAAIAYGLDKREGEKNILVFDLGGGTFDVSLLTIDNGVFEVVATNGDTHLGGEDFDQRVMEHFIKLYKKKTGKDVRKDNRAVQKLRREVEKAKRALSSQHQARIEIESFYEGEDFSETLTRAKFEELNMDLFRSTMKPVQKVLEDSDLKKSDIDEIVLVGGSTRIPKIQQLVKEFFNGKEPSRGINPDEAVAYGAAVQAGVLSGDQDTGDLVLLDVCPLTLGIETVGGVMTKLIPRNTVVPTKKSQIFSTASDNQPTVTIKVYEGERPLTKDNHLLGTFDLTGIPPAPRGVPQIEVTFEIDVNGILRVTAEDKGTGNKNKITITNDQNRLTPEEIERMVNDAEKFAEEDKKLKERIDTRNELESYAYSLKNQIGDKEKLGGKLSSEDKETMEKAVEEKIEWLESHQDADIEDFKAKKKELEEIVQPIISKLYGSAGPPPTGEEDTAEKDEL
T1 sequence (P00750 36-562): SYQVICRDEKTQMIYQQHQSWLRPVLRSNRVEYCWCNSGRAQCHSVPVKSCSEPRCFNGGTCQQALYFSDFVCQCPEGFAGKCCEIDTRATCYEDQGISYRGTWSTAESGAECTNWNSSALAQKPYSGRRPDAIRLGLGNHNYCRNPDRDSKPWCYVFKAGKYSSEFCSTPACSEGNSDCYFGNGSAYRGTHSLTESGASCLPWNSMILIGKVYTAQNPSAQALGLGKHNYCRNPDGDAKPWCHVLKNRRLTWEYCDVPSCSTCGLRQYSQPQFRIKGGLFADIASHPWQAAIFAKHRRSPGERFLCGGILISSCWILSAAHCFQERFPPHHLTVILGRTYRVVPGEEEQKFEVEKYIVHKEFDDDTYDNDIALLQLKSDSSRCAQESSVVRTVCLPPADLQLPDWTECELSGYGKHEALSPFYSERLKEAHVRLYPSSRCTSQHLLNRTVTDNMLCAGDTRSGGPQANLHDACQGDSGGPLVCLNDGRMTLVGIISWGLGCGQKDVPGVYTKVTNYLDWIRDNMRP

Substance	binding to immobilized tPA (tPA)	binding of BiP (detection anti-FLAG-HRP) (human BiP)	binding of BiP (detection Ni-NTA-HRP) (human BiP; FIG. 7A)	binding of tPA F-EGF [1]	increased ThT fluorescence ([2]; 1 mg ml^−1 protein exposed to 21.4 μg ml^−1 CPG-ODN (FIG. 4F))	increase in ThT fluorescence ([2]; 10.4 μg ml^−1 CPG-ODN)	ThT fluorescence enhancement ([2]; 10.7 μg ml^−1 CPG-ODN) [factor]	ThT fluorescence enhancement ([2]; 21.4 μg ml^−1 CPG-ODN) [factor]	increase in ThT fluorescence ([2]; 21.7 μg ml^−1 CPG-ODN) [times]	ThT fluorescence enhancement ([2]; 42.8 μg ml^−1 CPG-ODN) [factor]	ThT fluorescence enhancement ([3]; 200 μg ml^−1 LPS (FIG. 4D, E))	ThT fluorescence enhancement ([3]; 400 μg ml^−1 LPS (FIG. 4D, E)) [times]	ThT fluorescence enhancement ([3]; 600 μg ml^−1 LPS (FIG. 4D, E)) [times]	ThT fluorescence enhancement ([3]; 1 mg ml^−1 protein exposed to 600 μg ml^−1 LPS (FIG. 4C))	ThT fluorescence enhancement vs protein in buffer only ([3]; 10 μg ml^−1 LPS (FIG. 4B)) [times]	ThT fluorescence enhancement vs protein in buffer only ([3]; 25 μg ml^−1 LPS (FIG. 4B)) [times]	ThT fluorescence enhancement vs protein in buffer only ([3]; 100 μg ml^−1 LPS (FIG. 4B)) [times]	ThT fluorescence enhancement vs protein in buffer only ([3]; 200 μg ml^−1 LPS (FIG. 4B)) [times]	ThT fluorescence enhancement vs protein in buffer only ([3]; 600 μg ml^−1 LPS (FIG. 4B)) [times]	ThT fluorescence enhancement vs protein in buffer only ([3]; 1200 μg ml^−1 LPS (FIG. 4B)) [times]
albumin-AGE: advanced glycation end-product modified bovine serum albumin	bind	high affinity	low affinity	High binding affinities; also recorded: high affinity binding	–	–	–	–	–	–	–	–	–	–	–	–	–	–	–	–
lysozyme: chicken egg-white lysozyme	–	–	–	–	no effect	approximately 8 times	1.1	1.2	~7	1.4	approximately 5 times	~11	~18	approximately 10 times	1.1	1.3	1.6	2.3	5.7	13.1
